Data set [1] is described as follows: DSC of rhGh, effect of pH. The following applies: pH 7.5 (10 mg/mL). It counts as physicochemical.
A short description of data set [2]: DSC of rhGh, effect of GuHCl. It counts as physicochemical. The following applies: pH 7.5. As to the method: (§1) Scanning calorimetry was performed using 5 mg 0.83 mM porcine insulin (MW 6,000) per mL in 50 mM phosphate buffer, pH 7.5. All thermograms were performed on a Microcal MC-2 scanning calorimeter equipped with the DA2 data acquisition system operated in the upscale mode at 1° C./min (up to 90° C.), and data points were collected at 20 second intervals. All scans were initiated at least 20 degrees below the observed transitions for the active agent. All thermograms were corrected for baseline subtraction and normalized for the concentration of macromolecule. According to the methods of the Johns Hopkins Biocalorimetry Center, See, for example, Ramsay et al. Biochemistry (1990) 29:8677-8693; Schon et al. Biochemistry (1989) 28:5019-5024 (1990) 29: 781-788.
An initial scan of rhGh was performed at 10 mg/mL in the absence of GuHCl (0.33 mM assuming 20,000 molecular weight). Subsequently, the concentration of rhGh was lowered to 5 mg/mL (0.17 mM) in 50 mM phosphate buffer, pH 7.5 containing varying concentrations of GuHCl. Each subsequent thermogram was corrected by background subtraction of a 0.5 M guanidine-phosphate buffer solution. The thermograms were corrected by subtraction of a 0.5M NaCl-phosphate buffer blank. Scans were performed according to the procedure of Example 9.

Data set [3] is described as follows: In vivo rhGH in rats, subcutaneous, with delivery agents. Also on record: species or system Sprague-Dawley rats. The following applies: rat; no delivery agent (Example 43A). On the procedure:
The delivery agents were reconstituted with distilled water and adjusted to pH 7.2-8.0 with either aqueous hydrochloric acid or aqueous sodium hydroxide. A stock solution of rhGH was prepared by mixing rhGH, D-mannitol and glycine and dissolving this mixture in 2% glycerol/water. The stock solution was then added to the delivery agent solution. Several delivery agent to active agent ratios were studied.
Male Sprague-Dawley rats weighing 200-250 g were fasted for 24 hours and administered ketamine (44 mg/kg) and chlorpromazine (1.5 mg/kg) 15 minutes prior to dosing. The rats were administered one of the dosing solutions described above by subcutaneous injection, intranasal instillation, or sublingual instillation. Blood samples were collected serially from the tail artery for serum calcium concentration determination or serum rhGH concentrations. The dose of rhGH administered in these experiments was 0.1 mg/kg.
Serum rhGH concentrations were quantified by an rhGH enzyme immunoassay test kit.
rhGH (1 mg/kg) was administered by oral gavage to a rat, and delivery was evaluated according to the procedure of Example 43.

A short description of data set [4]: In vivo delivery of rhGH in rats, sublingual, intranasal, oral. The following applies: rat, no carrier, drug dose 6 mg/kg. On the procedure:
Dosing compositions were prepared by mixing the modified amino acids and recombinant human growth hormone (rhGH) as listed in Table 16 below in a phosphate buffer solution at a pH of about 7-8.
Rats were administered the dosing composition by sublingual or intranasal administration. Delivery was evaluated by using an ELISA assay for rhGH from Medix Biotech, Inc. For intracolonic administration, a sample was prepared and dosed to fasted rats at 25 mg/kg of carrier in a buffered solution containing propylene glycol (0-50%) and 1 mg/kg rhGH.
rhGH ([…]) was administered by oral gavage to a rat, and delivery was evaluated according to the procedure of Example 41A.

The nature of data set [5]: DSC of rhGh, effect of ionic strength. Type of data set: physicochemical. Particulars: pH 7.5.
Data set [6] in a line: DSC of rhGh, effect of pH. Type of data set: physicochemical. As to the method: as §1
5 mg/mL rhGh were dissolved in buffer (0.17 mM in 50 mM phosphate buffer, assuming a molecular weight of 20,000). The pH of the solution was adjusted to the desired value, and all curves were corrected by baseline subtraction.
The effect of pH on structure was assessed by DSC according to the procedure of Example 9 where individual solutions were prepared in phosphate buffer ranging in pH value from 2.0 to 6.0.

A further data set relates to serum calcium. In words: In vivo salmon calcitonin in rats, subcutaneous, with delivery agents. Also on record: species or system Sprague-Dawley rats. Particulars: sCT 0.2 μg/kg, no delivery agent (Example 55A). As to the method: The delivery agents were reconstituted with distilled water and adjusted to pH 7.2-8.0 with either aqueous hydrochloric acid or aqueous sodium hydroxide. A stock solution of sCT was prepared by dissolving sCT in citric acid (0.085N). The stock solution was then added to the delivery agent solution. Several different delivery agent to active agent ratios were studied.
Male Sprague-Dawley rats weighing 200-250 g were fasted for 24 hours and administered ketamine (44 mg/kg) and chlorpromazine (1.5 mg/kg) 15 minutes prior to dosing. The rats were administered one of the dosing solutions described above by subcutaneous injection. Blood samples were collected serially from the tail artery for serum calcium concentration.
Serum calcium concentrations were quantified by the o-cresolphthalein complexone method (Sigma) using a UV/VIS spectrophotometer (Perkin Elmer).
Salmon calcitonin was administered by oral gavage to rats, and delivery was evaluated according to the Procedure of Example 55.

Bridge positions count the residues as written; N and C are the ends. Ends that are not written are not given here.

Turning to rhGh: recombinant human growth hormone, the “Tm (Cp, max), transition a)” value in data set [1] was “a) 73 °C”. Moreover, in data set [1], the “Tm (Cp, max), transition b)” value was “b) 75 °C”. Also, the “ΔH°, (a) + (b)” value in data set [1] is “(a) + (b) = 632 kcal/mol”. Besides, the “DOMAIN A Tm (Cp, max)” value is 71.5 °C in data set [2] (0.5 M GuHCl); 70.9 °C in data set [2] (1.0 M GuHCl); 69.7 °C in data set [2] (1.5 M GuHCl); 70.0 °C in data set [2] (2.0 M GuHCl); 70.7 °C in data set [2] (2.5 M GuHCl); 72.6 °C in data set [2] (no GuHCl, rhGh 10 mg/mL). Further, the “DOMAIN B Tm (Cp, max)” value was “not defined,” in data set [2] (0.5 M GuHCl); “absent” in data set [2] (1.0 M GuHCl); “absent” in data set [2] (1.5 M GuHCl); “absent” in data set [2] (2.0 M GuHCl); “absent” in data set [2] (2.5 M GuHCl); 74.3 °C in data set [2] (no GuHCl, rhGh 10 mg/mL). In addition, the “ΔH°” value in data set [2] (0.5 M GuHCl) was found to be 48 kcal/mol; in data set [2] (1.0 M GuHCl), 109 kcal/mol; in data set [2] (1.5 M GuHCl), 12 kcal/mol; in data set [2] (2.0 M GuHCl), 58 kcal/mol; in data set [2] (2.5 M GuHCl), 99 kcal/mol; in data set [2] (no GuHCl, rhGh 10 mg/mL) it was 632 kcal/mol. For the same substance, the “ΔH°” value in data set [5] (0.0 M NaCl) was 191.0 kcal/mol; in data set [5] (0.5 M NaCl) it was 89.7 kcal/mol; in data set [5] (1.0 M NaCl), 50.5 kcal/mol; in data set [6] (pH 2.0), “no transition observed”; in data set [6] (pH 3.0), “no transition observed”; in data set [6] (pH 3.5) it was “no transition observed”. Further, the “ΔH°” value in data set [6] (pH 4.0) was “broad transition”; in data set [6] (pH 5.0) it was 161 kcal/mol; in data set [6] (pH 6.0), 191 kcal/mol. The “Peak Serum [rhGH]” value in data set [3] is given as 4 ± 2 ng/mL. Also, the “Mean Peak Serum Levels of rhGH” value in data set [4] was <10 ± 10 ng/mL. In addition, the “Tm (Cp, max)” value in data set [5] (0.0 M NaCl) is 75.2 °C; in data set [5] (0.5 M NaCl), 75.8 °C; in data set [5] (10.0 M NaCl), 76.5 °C; in data set [6] (pH 2.0) it was “no transition observed”; in data set [6] (pH 3.0), “no transition observed”; in data set [6] (pH 3.5), “no transition observed”. For the same substance, the “Tm (Cp, max)” value is “≈73.0 °C” in data set [6] (pH 4.0), 75.0 °C in data set [6] (pH 5.0) and 75.2 °C in data set [6] (pH 6.0).
On to “sCT: Salmon Calcitonin (CSNLSTCVLGKLSQELHKLQTYPRTNTGSGTP-NH2; disulfide 1-7; ends not checked)”, for which the “Percent Decrease in Serum Calcium” value with serum calcium worked out at 17 ± 2%.
